Measurements: US20130136748A1 (Ablynx, published 2013)
Where “and” joins values, the source holds several entries; their conditions need not be identical. Equal values may be shown once.

T1: Chimeric chicken Her3-human domain 1 (AA1-206 human, AA207-642 chicken) (chicken/human chimera)
T1 construct: Transmembrane and extracellular regions, on HEK293 cells
T1 chain: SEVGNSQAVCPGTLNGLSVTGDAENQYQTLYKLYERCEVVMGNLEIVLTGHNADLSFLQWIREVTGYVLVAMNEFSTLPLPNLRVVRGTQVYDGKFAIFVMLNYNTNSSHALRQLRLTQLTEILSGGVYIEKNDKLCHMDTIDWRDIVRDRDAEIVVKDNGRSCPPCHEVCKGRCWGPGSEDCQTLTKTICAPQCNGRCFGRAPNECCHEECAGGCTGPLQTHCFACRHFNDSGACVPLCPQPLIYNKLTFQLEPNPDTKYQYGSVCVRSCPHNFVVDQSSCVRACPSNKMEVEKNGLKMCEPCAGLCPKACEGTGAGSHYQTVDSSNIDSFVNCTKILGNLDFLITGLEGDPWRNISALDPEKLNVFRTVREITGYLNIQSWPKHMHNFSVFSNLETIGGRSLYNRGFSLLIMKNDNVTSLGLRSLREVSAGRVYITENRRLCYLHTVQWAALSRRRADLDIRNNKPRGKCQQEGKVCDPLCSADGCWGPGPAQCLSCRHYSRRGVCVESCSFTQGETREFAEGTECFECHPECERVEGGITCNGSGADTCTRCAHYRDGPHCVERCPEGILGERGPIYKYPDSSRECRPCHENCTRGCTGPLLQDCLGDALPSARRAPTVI

T2: Chimeric chicken Her3-human domain 2 (AA207-328 human) (chicken/human chimera)
T2 construct: Transmembrane and extracellular regions, on HEK293 cells
T2 chain: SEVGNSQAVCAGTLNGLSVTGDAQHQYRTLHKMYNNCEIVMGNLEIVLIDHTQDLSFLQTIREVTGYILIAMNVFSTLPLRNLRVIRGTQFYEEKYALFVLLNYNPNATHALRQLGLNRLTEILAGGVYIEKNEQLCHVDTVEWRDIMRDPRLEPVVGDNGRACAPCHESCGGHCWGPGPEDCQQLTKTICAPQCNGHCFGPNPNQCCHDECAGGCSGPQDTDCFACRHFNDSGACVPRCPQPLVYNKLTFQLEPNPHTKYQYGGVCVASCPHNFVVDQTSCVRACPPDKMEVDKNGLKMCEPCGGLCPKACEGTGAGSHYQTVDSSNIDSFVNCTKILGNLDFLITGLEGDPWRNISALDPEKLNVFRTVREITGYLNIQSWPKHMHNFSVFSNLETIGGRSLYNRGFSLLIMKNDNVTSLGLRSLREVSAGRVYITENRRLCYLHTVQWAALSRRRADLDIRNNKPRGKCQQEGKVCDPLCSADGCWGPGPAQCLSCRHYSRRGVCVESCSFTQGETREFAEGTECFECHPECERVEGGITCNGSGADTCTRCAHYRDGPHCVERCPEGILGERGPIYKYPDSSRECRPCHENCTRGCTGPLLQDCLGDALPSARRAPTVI


Columns and labels:
hHER3 full length [1] = biological target: T3, hHER3 full length (human, UniProt P21860 20-1342); test: cell-based or functional assay
[2] = biological target: T1, Chimeric chicken Her3-human domain 1 …; test: FACS, HEK293 with chimeric HER3
[3] = biological target: T4, human HER3-Fc (R&D Systems, 348-RB) (human, UniProt P21860 20-643); test: HRG competition alphascreen
T4 construct: Bought; also called hHER3-Fc; Fc-HER3; Fc part of the bought chimera not given, not described

[4] = biological target: T4, human HER3-Fc (R&D Systems, 348-RB); test: HRG competition alphascreen; remark: listed apart in the source
[5] = biological target: T4, human HER3-Fc (R&D Systems, 348-RB); test: HRG competition alphascreen; remark: listed apart in the source
[6] = biological target: T4, human HER3-Fc (R&D Systems, 348-RB); test: SPR, HER3-Fc captured by anti-Fc
hHER3 full length [7] = biological target: T3, hHER3 full length; test: FACS competition with HRG1-β1-EGF, CHO-HER3
[8] = biological target: T2, Chimeric chicken Her3-human domain 2 …; test: FACS, HEK293 with chimeric HER3
[9] = biological target: T4, human HER3-Fc (R&D Systems, 348-RB); test: SPR, HER3-Fc captured; heterogenous curve, main interaction (89%)
[10] = biological target: T5, hHER3 ECD (human HER3 extracellular domain) (human, UniProt P21860 20-643); test: SPR off rate
T5 construct: also called recombinant HER3-ECD

hHER3 full length [11] = biological target: T3, hHER3 full length; test: cell-based or functional assay; remark: listed apart in the source
[12] = biological target: T4, human HER3-Fc (R&D Systems, 348-RB); test: 18G11 competition alphascreen
[13] = biological target: T4, human HER3-Fc (R&D Systems, 348-RB); test: alphascreen, competitor biotinylated 18G11
[14] = biological target: T5, hHER3 ECD (human HER3 extracellular …); test: off rate screening on recombinant HER3-ECD
[15] = biological target: T5, hHER3 ECD (human HER3 extracellular …); test: SPR off rate on HER3-ECD, periplasmic extract

IC50 pHER3, HRG1-β1 stimulated MCF7 (hHER3 full length [1]) [M] | binding result [2] | % inhibition [3] [%] | IC50 [3] [nM] | IC50 [4] | IC50 [5] [nM] | Kd [6] [nM] | kon [6] [M⁻¹ s⁻¹] | IC50 (hHER3 full length [7]) [nM] | binding result [8] | Kd [9] [nM] | kon [9] [M⁻¹ s⁻¹] | koff [10] | IC50 pHER3 blocking, HRG stimulated MCF7 (hHER3 full length [11]) [M] | IC50 [12] [nM] | IC50 [13] [nM] | koff [14] [s⁻¹] | koff [15] | Binder
6.25e-09 | binds | 86.7 | 0.264 | 0.27 nM and 0.69 nM | 0.18 | 0.22 | 1.2e+06 | 4.26 |  |  |  |  |  |  |  |  |  | 04C07 (VHH, also called HER3MS04C07; HER3MS004C07) VHH: EVQLVESGGGLVQAGGSLRLSCAASGFTFSSYPMSWVRQAPGKGPAWVSTVSPGGITTSYADSVKGRFTISRDNAKNTLYLQMNSLKPEDTAVYYCLRDLNNRGQGTQVTVSS
 | binds |  |  |  |  |  |  |  | binds | 48 | 8400 |  |  |  |  |  |  | 17C08 (VHH, also called 17C8) VHH: EVQLVESGGGLMQAGDSLRLSCAASGRAFSSYALGWFRRAPGKERECVAATDRLGDNTYFPDSVKGRFTISRDNAKNTLYLQMNNLKPEDTAVYYCAAGAVRYGVSTSPMNYNYWGQGTQVTVSS
 |  |  |  |  |  | 10 | 26000 |  | binds |  |  | 0.00043 s⁻¹ and 0.00047 s⁻¹ | 2.91e-08 | 4.4 | 3.2 | 0.00061 | 0.00062 s⁻¹ and 0.00077 s⁻¹ | 18G11 (VHH, c-myc, His6-tagged form as expressed; also called HER3MS18G11; HER3MS018G11) VHH: EVQLVESGGGLVQPGGSLRLSCAASGTLFKINAMGWYRQAPGKRRELVALITSSDTTDYAESVEGRFTISRDNTWNAVYLQMNSLKPEDTAVYYCHSDHYSMGVPEKRVIMYGQGTQVTVSS
